Test results from article PMC11568366, “Phosphorylation of cytochrome c at tyrosine 48 finely regulates its binding to the histone chaperone SET/TAF‐Iβ in the nucleus” (Protein Science : A Publication of the Protein Society, 2024).

B1: wild-type cytochrome c (reduced) (natural protein)
chain: not shown
notes: cytochrome c, human; Hemeprotein, kept reduced with sodium ascorbate in ITC and NMR; Construct and expression as in cited earlier work (Moreno-Beltrán et al. 2015; Olteanu et al. 2003); also called WT Cc; Cc
B2: Y48E cytochrome c phosphomimetic mutant (reduced) (natural protein)
chain: not shown
notes: cytochrome c, human; Hemeprotein, reduced in ITC; also called Y48E Cc
B3: Y48D cytochrome c phosphomimetic mutant (reduced) (natural protein)
chain: not shown
notes: cytochrome c, human; Hemeprotein, reduced in ITC; also called Y48D Cc

What was measured:
[1] = molecular target: T1, SET/template-activating factor Iβ (SET/TAF-Iβ), recombinant (UniProt Q01105-2 1-277); assay: ITC; 300 μM reduced Cc injected (17 x 2.91 μL) into 30 μM SET/TAF-Iβ (as homodimer) in the cell, 25°C, 10 mM sodium phosphate pH 7.4; WT fitted with two cooperative binding sites, mutants with independent binding sites; details: both partners purified
T1 construct: SET/TAF-Iβ, the beta isoform of SET; construct in pET28a(+) from González-Arzola et al. 2015; Concentration is expressed as the functional homodimer
T1 sequence (Q01105 other isoform, or with tags, fused parts or gaps): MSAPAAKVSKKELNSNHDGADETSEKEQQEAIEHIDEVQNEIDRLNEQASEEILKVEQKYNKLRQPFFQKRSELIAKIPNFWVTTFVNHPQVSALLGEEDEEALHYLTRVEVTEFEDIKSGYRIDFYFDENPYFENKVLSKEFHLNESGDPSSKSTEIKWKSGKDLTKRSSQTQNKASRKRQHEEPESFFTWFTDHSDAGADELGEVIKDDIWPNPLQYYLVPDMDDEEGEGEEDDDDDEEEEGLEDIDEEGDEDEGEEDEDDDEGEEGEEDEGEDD

[2] = molecular target: T1, SET/template-activating factor Iβ …; assay: as above; details: both partners purified; remark: listed apart in the source

| Binder | stoichiometry N [1] | dH1 (first site) [2] | dH2 (second site) [2] | Kd [2] | dH [2] | stoichiometry N [2] |
| --- | --- | --- | --- | --- | --- | --- |
| B1 | 2 Cc per SET/TAF-Iβ homodimer | 5.44 kJ/mol | 28.9 kJ/mol |  |  |  |
| B2 |  |  |  | 110 µM | -79.5 kJ/mol | 2.3 |
| B3 |  |  |  | 22 µM | -31.4 kJ/mol | 2.2 |
